Laboratory results published in patent US9056079B2, “Molecules interfering with binding of calbindin to inositol monophosphatase for the treatment of mood disorders” (Ben-Gurion University of the Negev Research and Development …, priority 2008, dated 2015).
Read-outs that look alike come from different tables or passages of the source. Where no end group is shown, it is not given here.

What was measured:
IMPase [1] = conditions: 30 mM LiCl; cited from earlier work
IMPase [2] = target: T1, IMPase (Bos taurus, UniProt P20456); conditions: read-out: Ki, uncompetitive inhibition of IMPase; cited from earlier work
T1 sequence (P20456 1-277): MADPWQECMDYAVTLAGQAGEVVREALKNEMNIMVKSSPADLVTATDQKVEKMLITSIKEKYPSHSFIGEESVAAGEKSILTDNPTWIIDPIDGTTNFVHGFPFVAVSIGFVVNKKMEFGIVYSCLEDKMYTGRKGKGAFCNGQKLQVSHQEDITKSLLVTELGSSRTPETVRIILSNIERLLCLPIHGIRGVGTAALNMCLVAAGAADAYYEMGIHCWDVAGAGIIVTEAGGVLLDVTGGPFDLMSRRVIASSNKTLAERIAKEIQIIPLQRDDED

[3] = target: T2, calbindin-activated IMPase (Homo sapiens, UniProt P05937); assay: IMPase activity in mouse brain crude homogenate in the presence of recombinant human calbindin and short peptides (malachite green phosphate assay); assay type: biochemical; design: from tissue; host or cells: mouse brain crude homogenate; key to IMPase Activity, nean ± SD: fraction of mean control value in each run; conditions: for IMPase Activity, nean ± SD / effect of peptide on the enhancement of IMPase activity by calbindin (in words): 10 μM peptide; for IMPase Activity, nean ± SD: values normalized to the mean of the control values in each run; for effect of peptide on the enhancement of IMPase activity by calbindin (in words): 20 μM calbindin
T2 sequence (P05937 1-261): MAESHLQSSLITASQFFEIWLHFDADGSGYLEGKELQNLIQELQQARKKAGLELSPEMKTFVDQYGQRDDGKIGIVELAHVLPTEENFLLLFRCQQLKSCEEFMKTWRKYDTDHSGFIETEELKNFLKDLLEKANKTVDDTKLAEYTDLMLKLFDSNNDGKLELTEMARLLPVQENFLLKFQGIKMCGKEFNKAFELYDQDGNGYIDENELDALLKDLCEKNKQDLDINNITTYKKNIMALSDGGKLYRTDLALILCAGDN
Procedure: (§1) IMPase activity in mouse brain homogenates was measured as previously described [Cryns et al., 2008]. Inorganic phosphate liberated from inositol-1-phosphate was quantified spectrophotometrically in an ELISA reader (iEMS, Labsystems) using the malachite green color reagent. To study the effect of the synthetic peptides on the enhancing interaction between calbindin and IMPase the reaction was carried out in the presence of 20 μM human recombinant calbindin [Thulin and Linse, 1999] (produced by PPS, Rehovot, Israel, using the plasmid kindly donated by S. Linse, Lund, Sweden) and in the presence or absence of 10 μM of each of the peptides. In order to distinguish IMPase activity from non-specific phosphatases the reaction was carried out in the presence and absence of 30 mM LiCl. […] The enzyme activity was calculated as the difference between the activity values in absence and in the presence of Li. Values were normalized to the mean of the control values in each run.

IMPase [4] = assay: Basal IMPase activity in the presence of peptide but in the absence of calbindin (control for nonspecific effect); assay type: biochemical
Procedure: To control for a possible nonspecific effect of short peptides on IMPase activity the enzyme's activity in the presence of Peptide 1 (but in the absence of calbindin) was assessed. […] Furthermore, possibilities were checked that there was a protease activity in the homogenate, and that eventual prior interaction between IMPase and calbindin prevents interference by the active peptides. To this end calbindin was preincubated with the homogenate for 10 min prior to the addition of the substrate. No difference in IMPase activity was found in these two experiments.
as §1, with “peptides.” for “peptides. In order to distinguish IMPase activity from non-specific phosphatases the reaction was carried out in the presence and absence of 30 mM LiCl.”, “Values were normalized to the mean of the control values in each run.” left out

[5] = target: T2, calbindin-activated IMPase; assay: IMPase activity in postmortem human brain crude homogenate in the presence of human recombinant calbindin; assay type: biochemical; design: from tissue; host or cells: postmortem human brain crude homogenate
Procedure: The designed peptides were validated by in vitro IMPase activity measurements. As shown in the Examples (Table 1), IMPase activity of mouse brain crude homogenate is increased by 1.9 ±1.0 (S.D.) fold in the presence of 20 μM human recombinant calbindin. […] Peptides 2 through 4 (SEQ ID NO:2 through SEQ ID NO:4), which included the Lys-Glu-Lys motif or part of it, inhibited the activating interaction similarly to Peptide 1.
as §1

[6] = target: T2, calbindin-activated IMPase; design: from tissue; host or cells: postmortem human brain crude homogenate; conditions: postmortem human prefrontal cortex crude homogenate; recombinant human calbindin; Shamir et al., 2005; cited from earlier work
[7] = 20 μM human recombinant calbindin

IMPase Activity, nean ± SD [3, 7]	Compound	other results
2.3 ± 1.7	IAAAYP [Peptide 8]	
2.5 ± 1.1	IAEAYP [Peptide 6]	
1.9 ± 0.6	Ile-Lys-Glu-Lys-Tyr (IKEKY; Peptide derived from the segment including residues 55-66 of IMPase) [Peptide 9]	effect of peptide on the enhancement of IMPase activity by calbindin (in words) [3]: did not interfere with the enhancement of IMPase activity by calbindin
1.4 ± 0.2	KHIKPS [Peptide 7]	
2.6 ± 1.2	Lys-Glu-Lys (KEK; Peptide derived from the segment including residues 55-66 of IMPase) [Peptide 10]	effect of peptide on the enhancement of IMPase activity by calbindin (in words) [3]: did not interfere with the enhancement of IMPase activity by calbindin
1.4 ± 0.6	SYEHKP [Peptide 5]	

More lines, now with the values behind:

Compound	IMPase Activity, nean ± SD [3, 7]	other results
[Cl-].[Li+] [LiCl]		inhibition of IMPase activity (in words) (IMPase [1]): totally inhibits IMPase activity
[Li] [lithium]		Ki (IMPase [2]): 800 µM
IAEKYP [Peptide 4]	1.1 ± 0.6	
IKAKYP [Peptide 2]	0.9 ± 0.5	
IKEAYP [Peptide 3]	1.0 ± 0.5	
IKEKYP [Peptide 1, hexapeptide identical to residues 58-63 of IMPase]	1.2 ± 0.9	effect on basal activity of IMPase (IMPase [4]): did not affect the basal activity of IMPase; effect of peptide on the enhancement of IMPase activity by calbindin (in words) [3]: strongly reduced; effect of peptide on calbindin-activated IMPase (in words) [5]: abolished this effect
calbindin: member of the vitamin-D-dependent calcium-binding proteins; binds IMPase residues 55-66 and enhances its activity	1.9 ± 1.0	increase of IMPase activity by calbindin [3, 7]: 1.9 ±1.0 fold; increase of human brain IMPase activity by calbindin [5]: three-fold; increase of IMPase activity by calbindin [6]: 3.5 fold
